From patent US20130052176, “APTAMER FOR NGF AND USE THEREOF” (SHIONOGI & CO., LTD, published 2013) come the findings set out here.

Where only a bound is given, the exact number is not on record here.

Holding throughout (details): tags: amine-coupled to CM5 chip in SPR; soluble in cell assays; chain copies: 2
For series [1], the target named is T1, NGF (nerve growth factor) (human, UniProt P01138 P01138:122-241). Description: cell_activity; neurite outgrowth, NGF 1.1 nM; SPR binding; TF-1 IC50 >10 nM. How it is done:
(§1) The neurite outgrowth inhibitory activity of the aptamer obtained in Example 1 was evaluated by using Neuroscreen-1 cell, which is a subclone of PC-12 cells.
(§2) The cells (2500 cells per well) were cultured for one day in an RPMI-1640 medium containing 2.5% horse serum and 1.25% fetal bovine serum in a 96 well flat-bottom plate coated with collagen type IV. […] Two days later, the cytoplasm and nuclei were stained using Cellomics Neurite Outgrowth Kit (manufactured by Thermo Scientific), and neurite length per cell was measured by Cellomics ArrayScan VTI (manufactured by Thermo Scientific). With the neurite length per cell obtained by the addition of NGF alone as inhibitory activity 0%, and that of the cell obtained by NGF free culture for 2 days as inhibitory activity 100%, the inhibitory activity of the aptamer was calculated from the neurite length per cell obtained by culturing with the addition of NGF and the aptamer in mixture. When the inhibitory activity was 0% or below, ‘0%’ is indicated.

For series [2], the target named is T1, NGF (nerve growth factor). In words: cell_activity; neurite outgrowth, NGF 0.38 nM; SPR binding; TF-1 IC50 0.186 nM. How it is done:
as §1, §2

The target in series [3] is T1, NGF (nerve growth factor). Description: cell_activity; neurite outgrowth, NGF 0.38 nM; SPR binding; TF-1 IC50 0.120 nM. How it is done:
as §1, §2

In series [4] the target is T1, NGF (nerve growth factor). In words: cell_activity; neurite outgrowth, NGF 0.38 nM; SPR binding; TF-1 IC50 0.083 nM. How it is done:
as §1, §2
A general note: In SPR one partner is held on a chip, and binding of the other changes the refractive index at the surface.

Series [5] addresses T1, NGF (nerve growth factor). In words: cell_activity; neurite outgrowth, NGF 0.38 nM; SPR binding; TF-1 IC50 0.09 nM. How it is done:
as §1, §2

For series [6], the target named is T1, NGF (nerve growth factor). Description: cell_activity; neurite outgrowth, NGF 0.38 nM; SPR binding; TF-1 IC50 0.110 nM. How it is done: as §1, §2
Series [7] concerns the target T1, NGF (nerve growth factor). Description: cell_activity; neurite outgrowth, NGF 0.38 nM; SPR binding; TF-1 IC50 0.175 nM. How it is done:
as §1, §2

The target of series [8] is T1, NGF (nerve growth factor). Description: cell_activity; neurite outgrowth, NGF 0.38 nM; not tested by SPR; TF-1 IC50 0.520 nM. How it is done: as §1, §2
Series [9] addresses T1, NGF (nerve growth factor). Description: cell_activity; neurite outgrowth, NGF 0.38 nM; SPR binding; TF-1 IC50 0.101 nM. How it is done: as §1, §2
The target in series [10] is T1, NGF (nerve growth factor). In words: cell_activity; neurite outgrowth, NGF 0.38 nM; SPR binding; TF-1 IC50 0.052 nM. How it is done:
as §1, §2

The target in series [11] is T1, NGF (nerve growth factor). Description: cell_activity; neurite outgrowth, NGF 0.38 nM; SPR binding; TF-1 IC50 0.105 nM. How it is done:
as §1, §2

Series [12] concerns the target T1, NGF (nerve growth factor). In words: cell_activity; neurite outgrowth, NGF 0.38 nM; SPR binding; TF-1 IC50 0.119 nM. How it is done:
as §1, §2

Series [13] concerns the target T1, NGF (nerve growth factor). In words: cell_activity; neurite outgrowth, NGF 0.38 nM; SPR binding; TF-1 IC50 0.100 nM. How it is done: as §1, §2
Series [14] has as its target T1, NGF (nerve growth factor). Description: cell_activity; neurite outgrowth, NGF 0.38 nM; SPR binding; TF-1 IC50 0.074 nM. How it is done:
as §1, §2

T1 sequence (P01138 122-241, one chain of several): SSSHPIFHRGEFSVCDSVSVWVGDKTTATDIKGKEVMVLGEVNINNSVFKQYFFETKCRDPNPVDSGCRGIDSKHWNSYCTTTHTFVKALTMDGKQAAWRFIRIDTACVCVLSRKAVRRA

GGGAGACUCGCCAGAGUUGAAAGAAACCCAAAUAAGUGUGCGCAC (ssRNA, 2'-F pyrimidines; 2'-OMe at 22; other purines 2'-OH) [aptamer ID 26(8)] gave an IC50 in series [1] below 1000 pM.

B1: aptamer ID 26(22) (mixed)
RNA: GGGAGACUCGCCAGAGUUGAAAGAAACCCAAAUAAGUGUGCGCAC
modifications: 2'-F pyrimidines except dT at 8; 2'-OMe purines except 2'-OH at 3,19,20,26; 5' idT and 3' idT
As for B1, in series [2], the IC50 came to 293 pM.

B2: aptamer ID 26(62) (ssRNA)
RNA: GGGAGACUCGCCAGAGUUGAAAGAAACCCAAAUAAGUGUGCGCAC
modifications: 2'-F pyrimidines except 2'-OMe at 7,8,9,11,12,17,18,33,37,45; 2'-OMe purines except 2'-OH at 3,19,20 and LNA at a26; 5' idT and 3' idT
In series [3], B2 came in with an IC50 of 228 pM.

B3: aptamer ID 26(50) (mixed)
RNA: GGGAGACUCGCCAGAGUUGAAAGAAACCCAAAUAAGUGUGCGCAC
modifications: 2'-F pyrimidines except 2'-OMe at 7,11,12,17,33,45, dT at 8,37 and dC at 9,29; 2'-OMe purines except 2'-OH at 3,19,20,26; 5' idT and 3' idT
B3 registered an IC50 in series [4] of 46 pM. In other words, the picomolar range.

B4: aptamer ID 26(14) (ssRNA)
RNA: GGGAGACUCGCCAGAGUUGAAAGAAACCCAAAUAAGUGUGCGCAC
modifications: 2'-F pyrimidines; 2'-OMe purines except 2'-OH at 3,5,19-21,24,26; 5' idT and 3' idT
In the case of B4, the IC50 in [5] is 82 pM. In other words, the picomolar range. In turn, GGGAGACUCGCCAGAGUUGAAAGAAACCCAAAUAAGUGUGCGCAC (ssRNA, 2'-F pyrimidines; 2'-OMe purines except 2'-OH at 3,19,20,24; 5' idT and 3' idT) [aptamer ID 26(20)] had an IC50 in series [6] of 16 pM.

B5: aptamer ID 26(21) (mixed)
RNA: GGGAGACUCGCCAGAGUUGAAAGAAACCCAAAUAAGUGUGCGCAC
modifications: 2'-F pyrimidines except dC at 7; 2'-OMe purines except 2'-OH at 3,19,20,26; 5' idT and 3' idT
In turn, B5 returned an IC50 in [7] of 283 pM.

B6: aptamer ID 26(66) (ssRNA)
RNA: GGGAGACUCGCCAGAGUUGAAAGAAACCCAAAUAAGUGUGCGCAC
modifications: 2'-F pyrimidines; 2'-OMe purines except 2'-OH at 3,19,20,26; 5' PEG40GS2 (ssH linker); 3' idT
Regarding B6, 252 pM corresponded to half-maximal inhibition in series [8] (IC50). That is a sub-nanomolar value.

B7: aptamer ID 26(59) (ssRNA)
RNA: GGGAGACUCGCCAGAGUUGAAAGAAACCCAAAUAAGUGUGCGCAC
modifications: 2'-F pyrimidines except 2'-OMe at 7,8,9,11,12,17,18,33,37,45; 2'-OMe purines except 2'-F at g3 and 2'-OH at 19,20,26; 5' idT and 3' idT
For B7, in series [9], the IC50 turned out to be 170 pM.

B8: aptamer ID 26(12) (ssRNA)
RNA: GGGAGACUCGCCAGAGUUGAAAGAAACCCAAAUAAGUGUGCGCAC
modifications: 2'-F pyrimidines; 2'-OMe purines except 2'-OH at 3,19-22,24,26; 5' idT and 3' idT
As to B8, the half-maximal inhibitory concentration (IC50) in series [10] came out at 36 pM. As for GGGAGACUCGCCAGAGUUGAAAGAAACCCAAAUAAGUGUGCGCAC (ssRNA, 2'-F pyrimidines; 2'-OMe purines except 2'-OH at 3,19,20; 5' idT and 3' idT) [aptamer ID 26(18)], the IC50 in series [11] was 84 pM. In other words, the picomolar range.

B9: aptamer ID 26(63) (mixed)
RNA: GGGAGACUCGCCAGAGUUGAAAGAAACCCAAAUAAGUGUGCGCAC
modifications: 2'-F pyrimidines except 2'-OMe at 7,8,9,11,12,17,18,33,37,39,45 and dC at 27,29; 2'-OMe purines except 2'-OH at 3,19,20,26; 5' idT and 3' idT
In [12], B9 gave an IC50 of 139 pM. In other words, the sub-nanomolar range.

B10: aptamer ID 26(41) (mixed)
RNA: GGGAGACUCGCCAGAGUUGAAAGAAACCCAAAUAAGUGUGCGCAC
modifications: 2'-F pyrimidines except dC at 29 and dT at 37; 2'-OMe purines except 2'-OH at 3,19,20,26; 5' idT and 3' idT
Take B10: the IC50 in series [13] worked out at 104 pM.

B11: aptamer ID 26(13) (ssRNA)
RNA: GGGAGACUCGCCAGAGUUGAAAGAAACCCAAAUAAGUGUGCGCAC
modifications: 2'-F pyrimidines; 2'-OMe purines except 2'-OH at 3,5,19,20,22,24,26; 5' idT and 3' idT
In series [14], B11 came in with an IC50 of 39 pM.

Broadly, the IC50 is the midpoint of a concentration-inhibition curve.
